Test results as given in patent US6759212B1, “Cell cycle-regulating proteins” (Chugai Seiyaku Kabushiki Kaisha, priority 1997, dated 2004).
“And” between values parts separate entries of the source, which are not always exact repeats. Equal entries are not always repeated.

Assays:
Mv1Lu cells [1] = experiment: Abnormal cytokinesis: cells having two or more nuclei, tetracycline-inducible expression, Giemsa staining; type: cell-based, mink; details: for percentage of cells having two or more nuclei to the total number of cells: Mv1Lu, 72 hours
Method: (§1) MvlLu cells carrying vector alone, wild-type FLAG-AIM-1 (WT) or FLAG-AIM-1 (K-R) were grown in the presence or absence of doxycycline (tetracycline analog) for 24 hours and then subjected to western blot with anti-FLAG antibody (FIG. 4A). […] In addition, the size of these cells was much larger than normal cells (FIGS. 4Bf and 5D). In these abnormal cells, however, spindle. functions including chromosome disjunction and late anaphase spindle elongation as well as nuclear division appeared unaffected (data not shown). This was further confirmed by flow cytometry (FACS) (FIG. 4C). […] Namely, apocytes appeared because karyokinesis advances but cytokinesis is inhibited.
Then, asynchronous cells transfected with vector alone (a, d), FLAG-AIM-1 (WT) (b, e) or FLAG-AIM-1 (K-R) (c, f) were grown with (a-c) or without (d-f) DOX for 72 hours and stained with Giemsa's solution. Results are shown in FIG. 4B, wherein upper panels are called as a, b and c from left to right, and lower panels are called as d, e and f from left to right.
(§2) (2) Abnormal Cytokinesis in Cells Expressing AIM-1 (K-R) Plasmid FLAG-AIM-1 (WT), FLAG-AIM-1 (K-R) or a control plasmid pEF/hygI was cotransfected with a reporter construct RSV-β-galactosidase at a ratio of 10:1 into NRK-49F cells and human diploid fibroblast KD cells (a kind gift of late Dr. Takeo Kakunaga) by Lipofectin method. After 24 hours, 1×10^3 cells were seeded per 60 mm dish, and 72 hours after transfection, cells were fixed in 1.25% glutaraldehyde/PBS and stained by a method described in literature (Shu et al., J.C.S. 108:2955-62, 1995) to observe expression of β-galactosidase. MvlLu cells were also tested under the conditions described in (1) B above.
1. The figures in the table mean the percentage of cells having two or more nuclei to β-galactosidase positive cells for NRK-49F cells and KD cells or the percentage of cells having two or more nuclei to the total number of cells for MvlLu cells. For each cell line, 160 or more cells were tested.

Mv1Lu cells [2] = experiment: Growth for 2 weeks with or without DOX, Giemsa staining; type: cell-based, mink; details: grown 2 weeks with or without doxycycline
Method: The nuclei of these AIM-1 (K-R)-expressing cells divided 3 to 4 times during 4 to 5 days, resulting in more than 10 nuclei per cell (FIG. 5D).
Mv1Lu cells transfected with FLAG-AIM-1 (WT) or FLAG-AIM-1 (K-R) were grown with or without DOX for 2 weeks and stained with Giemsa's solution.

[3] = system: human diploid fibroblast KD cells; experiment: Abnormal cytokinesis: cells having two or more nuclei after transient transfection; type: cell-based; details: 72 hours after transfection
Source text: (§3) To confirm the generality of this observation, AIM-1 (WT) and AIM-1 (K-R) plasmids were transiently expressed in NRK-49F cells and human diploid fibroblast KD cells and the results were compared with those obtained in a control transfected with vector alone. These constructs were transfected into cell-s with a reporter construct […] to prepare β-galactosidase-expressing plasmids for use as a positive internal control for transfection (Table 1).
as §2
(§4) 1. The figures in the table mean the percentage of cells having two or more nuclei to β-galactosidase positive cells for NRK-49F cells and KD cells or the percentage of cells having two or more nuclei to the total number of cells for MvlLu cells. […]

Mv1Lu cells [4] = experiment: FACS analysis of DNA content (propidium iodide); type: cell-based, mink; details: 72 hour-induction
Method: as §1
Cell samples were harvested and fixed with ethanol, stained with propidium iodide for FACS analysis.

NRK-49F cells = experiment: Abnormal cytokinesis: cells having two or more nuclei after transient transfection; type: cell-based, rat; details: 72 hours after transfection
Source text: as §3, §2, §4

B1: AIM-1 (K-R): kinase-inactive (dominant negative) FLAG-AIM-1 in which lysine at the 109-position was replaced by arginine, expressed from plasmid (protein, UniProt O55099 1-343, looked up, variant K109R)
Aurora kinase B: MAQKENVYPWPYGSKTSQSGLNTLPQRVLRKEPAVTPAQALMNRSNSQSTAVPGQKLTENKGATALQGSQSRQPFTIDNFEIGRPLGKGKFGNVYLAREKKSRFIVALRILFKSQIEKEGVEHQLRREIEIQAHLKHPNILQLYNYFYDQQRIYLILEYAPRGELYKELQKSGTFDEQRTATIMEELSDALMYCHKKKVIHRDIKPENLLLGLQGELKIADFGWSVHAPSLRRKTMCGTLDYLPPEMIEGRMHNEMVDLWCIGVLCYELMVGNPPFESPSHSETYRRIVKVDLKFPSSMPLGAKDLISKLLKHNPSQRLPLEQVSAHPWVRANSRRVLPPSAL
modifications: N-terminal FLAG tag
B1 was tested, and the nuclei per cell (Mv1Lu cells [1]; Mv1Lu cells expressing construct, during 4 to 5 days) was “more than 10”, the “percentage of cells having two or more nuclei to the total number of cells” value (“percentage … to the total number of cells” below) (Mv1Lu cells [1]; DOX(+) (not induced)) was 7.7% and the “percentage … to the total number of cells” value (Mv1Lu cells [1]; DOX(−) (induced)) was 68.4%. For the same molecule, the “percentage … to the total number of cells” value (Mv1Lu cells [1]; DOX(−) (induced), listed as FLAG-AIM-1 (K-R)) was “about 68%”, the “effect on growth potency (mitotic inhibition)” value (Mv1Lu cells [2]) was “miotic inhibition was observed” and the “percentage of cells having two or more nuclei to β-galactosidase positive cells” value [3] was 38% and 38.4%. For the same molecule, the “cell population with 4N or 8N DNA / cell cycle pattern (FACS)” value (Mv1Lu cells [4]) was “dramatically increased” and the “percentage of cells having two or more nuclei to β-galactosidase positive cells” value (NRK-49F cells) was 62%.
